Assay results: patent publication US7115556B2, “Use of anti-prolactin agents to treat proliferative conditions” (Greenville Hospital System, priority 1998, dated 2006)

How the values were obtained:
[1] = tested on: tyrosine phosphorylation of STAT5 protein in T-47D human breast cancer cells; test: hPRL induction of tyrosine phosphorylation of STAT5 protein (Example 8); format: cell-based
Description: Assay of hPRL induction of tyrosine phosphorylation of STAT5 protein. […] Tyrosyl phosphorylation of STAT 5 is a receptor mediated event and is thought to be an important step in ligand-induced signal transduction (Wakao et al., 1994, EMBO J. 13: 2182–2191; Kazansky et al., 1995, Mol. Endocrinol. 9:1598–1609; Waxman et al., 1995, J. Biol. Chem. 270:13262–13270). This assay was used to evaluate the ability of hPRL and hPRLA to inhibit induction of STAT 5 phosphorylation by wild type PRL.
Briefly, human breast cancer cells were plated in 12-well plates. After pre-incubation in serum-free DMEM for 2–3 hours, the cells were exposed to various concentration of hPRL and hPRLA in serum-free DMEM. The cells were incubated for 15 min at 37° C., washed once with PBS, and lysed in 300 μl lysis buffer (50 mM Tris-HCl, pH 6.8, 1% SDS, 1% β-mecaptoethanol, 0.1M DTT, 5% Sucrose, 100 uM Sodium Orthovanadate, and 0.6% bromphenol blue). Thirty microliters of cell lysates were subjected to 4–12.5% SDS-PAGE and immunoblot analysis using horse radish peroxidase (HRP)-conjugated anti-phosphotyrosine antibody PY20 and ECL reagent kit (Amersham, Ill.). Blots were then exposed to X-ray films and developed using standard procedures (Kodak, Rochester, N.Y.). This assay has been described in Chen et al., 1994, J. Biol. Chem. 269: 15892–15897; Chen et al., 1995, Endocrinol. 136:660–667; Wang et al., 1994, Proc. Natl. Acad. Sci. U.S.A. 91:1391–1395; Chen et al., 1995, Mol. Endocrinol. 9(3):292–302; Harding et al., 1996, J. Biol. Chem. 271(12):6708–6712.

[2] = tested on: MDA-MB-134 cells; test: TUNEL assay, MDA-MB-134; format: cell-based, human; conditions: 250 ng G129R, 24 hours
Procedure: Cell Culture. T-47D cells obtained from ATCC were grown in RPMI 1640 (phenol red free), supplemented with 10% FBS (GIBCO BRL). BT-474 cells were grown in RPMI 1640 medium (phenol red free) supplemented with 10% FBS and ATCC recommended supplements. MCF-7 cells were grown in DMEM medium (phenol red free), supplemented with 10% FBS. The cells were grown at 37° C. in a humid atmosphere in the presence of 5% CO2. The MDA-MB-134 cells were grown in Leibovitz's L-15 medium supplemented with 20% FBS and grown in CO2 free atmosphere. The breast cancer cells were trypsinized (0.02% Trypsin—EDTA) and grown in their respective media (phenol red free) supplemented with 10% CSS (Charcoal stripped serum) for a week. Subsequently the cells were trypsinized again and plated onto an 8 chambered slide system (Lab Tek II) at a confluence of 60–70% per chamber. The next day treatments were performed on the breast cancer cells using their respective media(phenol red free), supplemented with 1% CSS. The MDA-MB-134 VI cells were grown in phenol red containing medium, but with the same serum conditions as the other breast cancer cells.
Terminal deoxynucleotidly transferase mediated dUTP nick end labeling (TUNEL) assay. Nicks of the fragmented DNA are labeled at their 3-OH ends. The fluorescein-labeled dUTP is incorporated at the 3-OH ends by using the enzyme terminal deoxynucleotidyl transferase. […]

[3] = target: T1, hPRLR (Homo sapiens, UniProt P16471); conditions: Goffin et al., 1996; cited from earlier work
T1 sequence (P16471 25-622): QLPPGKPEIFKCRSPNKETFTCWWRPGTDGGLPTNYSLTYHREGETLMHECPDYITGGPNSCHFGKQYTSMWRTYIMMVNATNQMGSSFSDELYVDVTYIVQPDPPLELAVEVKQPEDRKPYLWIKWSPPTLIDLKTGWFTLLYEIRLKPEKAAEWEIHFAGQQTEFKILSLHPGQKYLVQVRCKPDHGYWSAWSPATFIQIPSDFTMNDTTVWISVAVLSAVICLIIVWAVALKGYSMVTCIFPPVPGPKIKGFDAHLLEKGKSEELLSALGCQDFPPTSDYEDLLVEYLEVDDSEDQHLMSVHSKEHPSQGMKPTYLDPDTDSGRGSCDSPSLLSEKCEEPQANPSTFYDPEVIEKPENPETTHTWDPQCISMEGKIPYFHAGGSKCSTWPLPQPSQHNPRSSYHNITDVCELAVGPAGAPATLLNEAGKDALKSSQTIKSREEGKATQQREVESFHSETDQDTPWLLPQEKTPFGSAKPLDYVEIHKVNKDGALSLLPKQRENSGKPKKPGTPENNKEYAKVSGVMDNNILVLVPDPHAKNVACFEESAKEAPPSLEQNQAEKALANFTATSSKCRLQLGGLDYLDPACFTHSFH

B1: hPRL-G129R: variant of human prolactin having a substitution of the glycine at position 129 with an arginine residue; prolactin receptor antagonist (protein)
chain: LPICPGGAARCQVTLRDLFDRAVVLSHYIHNLSSEMFSEFDKRYTHGRGFITKAINSCHTSSLATPEDKEQAQQMNQKDFLSLIVSILRSWNEPLYHLVTEVRGMQEAPEAILSKAVEIEEQTKRLLERMELIVSQVHPETKENEIYPVWSGLPSLQMADEESRLSAYYNLLHCLRRDSHKIDNYLKLLKCRIIHNNNC
[1]; T-47D cells, 5 nM of hormone alone, Western blot FIG. 3
  induction of phosphorylation of STAT5 proteins: absent
[1]; equal amounts: 5 nM hPRL and 5 nM hPRLA (lane 4)
  hPRL-induced phosphorylation of STAT5 proteins in presence of hPRLA: partially eliminated
[1]; excess of hPRLA: 5 nM hPRL and 25 nM hPRLA (lane 5)
  hPRL-induced phosphorylation of STAT5 proteins in presence of hPRLA: undetectable
[2]
  induction of apoptosis DNA fragmentation: induced apoptosis
[3]
  effect in PRLR reporter gene assay: antagonist effect
